Assay results as given in paper doi:10.1101/786475 (bioRxiv, 2019).

What was measured:
Test in all cases: peptide or protein array
[1] = target: T1, Nap1p (spotted on the yeast ProtoArray) (S. cerevisiae, UniProt P25293 1-417)
T1 sequence (looked up): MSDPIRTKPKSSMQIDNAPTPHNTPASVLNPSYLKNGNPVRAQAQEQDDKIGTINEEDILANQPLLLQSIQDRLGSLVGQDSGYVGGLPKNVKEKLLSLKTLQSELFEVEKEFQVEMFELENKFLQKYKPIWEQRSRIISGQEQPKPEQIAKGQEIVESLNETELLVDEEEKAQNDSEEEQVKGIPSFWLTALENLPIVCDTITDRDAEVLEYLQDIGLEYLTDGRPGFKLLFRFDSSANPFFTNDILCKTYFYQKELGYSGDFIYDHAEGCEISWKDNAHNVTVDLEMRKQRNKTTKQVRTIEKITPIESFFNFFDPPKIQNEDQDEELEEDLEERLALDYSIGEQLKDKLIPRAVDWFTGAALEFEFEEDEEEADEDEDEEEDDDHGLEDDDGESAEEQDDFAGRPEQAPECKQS

[2] = target: T2, Emi2p (spotted on the yeast ProtoArray) (S. cerevisiae, UniProt Q04409 1-500)
T2 sequence (looked up): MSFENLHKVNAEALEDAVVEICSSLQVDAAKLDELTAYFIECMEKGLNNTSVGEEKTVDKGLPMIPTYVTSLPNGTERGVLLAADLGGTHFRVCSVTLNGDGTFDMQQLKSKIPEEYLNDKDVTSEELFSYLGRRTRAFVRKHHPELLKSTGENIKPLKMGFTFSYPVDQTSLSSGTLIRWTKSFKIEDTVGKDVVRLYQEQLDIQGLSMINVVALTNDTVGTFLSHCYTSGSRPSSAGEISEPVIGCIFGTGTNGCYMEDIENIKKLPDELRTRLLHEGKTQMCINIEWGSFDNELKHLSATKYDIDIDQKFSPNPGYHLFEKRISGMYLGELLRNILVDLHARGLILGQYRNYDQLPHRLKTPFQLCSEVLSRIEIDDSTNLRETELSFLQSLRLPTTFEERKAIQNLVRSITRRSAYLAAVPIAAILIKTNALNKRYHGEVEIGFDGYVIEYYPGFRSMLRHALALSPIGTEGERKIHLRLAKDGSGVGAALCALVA

[3] = target: T3, Gln1p (spotted on the yeast ProtoArray) (S. cerevisiae, UniProt P32288 1-370)
T3 sequence (looked up): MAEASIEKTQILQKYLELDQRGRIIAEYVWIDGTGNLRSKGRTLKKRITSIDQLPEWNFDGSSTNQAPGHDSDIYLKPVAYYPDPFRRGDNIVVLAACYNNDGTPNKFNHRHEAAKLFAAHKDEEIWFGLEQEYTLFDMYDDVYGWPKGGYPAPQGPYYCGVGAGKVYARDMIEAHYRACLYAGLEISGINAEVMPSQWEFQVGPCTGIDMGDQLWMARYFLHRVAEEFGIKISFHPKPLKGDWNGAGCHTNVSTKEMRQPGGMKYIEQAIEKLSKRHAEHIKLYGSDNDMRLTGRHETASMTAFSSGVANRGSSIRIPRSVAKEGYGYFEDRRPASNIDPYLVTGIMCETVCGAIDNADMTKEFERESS

[4] = target: T4, Qcr6p (spotted on the yeast ProtoArray) (S. cerevisiae, UniProt P00127 1-147)
T4 sequence (looked up): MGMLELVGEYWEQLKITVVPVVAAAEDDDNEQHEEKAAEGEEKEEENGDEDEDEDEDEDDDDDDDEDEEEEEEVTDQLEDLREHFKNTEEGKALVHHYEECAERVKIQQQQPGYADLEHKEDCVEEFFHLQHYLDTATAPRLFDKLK

binding result [1]: binds
binding result [2]: binds
binding result [3]: binds
binding result [4]: binds
B1: purified and biotinylated cytoplasmic domain of the Msb2p protein (HIS-Msb2p^CYT) (domain or fragment, S. cerevisiae, UniProt P32334 1207-1306, looked up)
chain: AFKYIIRRRIQSQEIIKNPEISSISSSEFGGEKNYNNEKRMSVQESITQSMRIQNWMDDSYYGHGLTNNDSTPTRHNTSSSIPKISRPIASQNSLGWNEV
modifications: biotinylated in vitro (sites not given)
